Reference: publication PMC10960667 (Molecular cell, 2024)

Molecular target: T1, recombinant full-length IκBζ wild type with 8×His-MBP tag (human, UniProt Q9BYH8-1 1-718)
T1 sequence (looked up): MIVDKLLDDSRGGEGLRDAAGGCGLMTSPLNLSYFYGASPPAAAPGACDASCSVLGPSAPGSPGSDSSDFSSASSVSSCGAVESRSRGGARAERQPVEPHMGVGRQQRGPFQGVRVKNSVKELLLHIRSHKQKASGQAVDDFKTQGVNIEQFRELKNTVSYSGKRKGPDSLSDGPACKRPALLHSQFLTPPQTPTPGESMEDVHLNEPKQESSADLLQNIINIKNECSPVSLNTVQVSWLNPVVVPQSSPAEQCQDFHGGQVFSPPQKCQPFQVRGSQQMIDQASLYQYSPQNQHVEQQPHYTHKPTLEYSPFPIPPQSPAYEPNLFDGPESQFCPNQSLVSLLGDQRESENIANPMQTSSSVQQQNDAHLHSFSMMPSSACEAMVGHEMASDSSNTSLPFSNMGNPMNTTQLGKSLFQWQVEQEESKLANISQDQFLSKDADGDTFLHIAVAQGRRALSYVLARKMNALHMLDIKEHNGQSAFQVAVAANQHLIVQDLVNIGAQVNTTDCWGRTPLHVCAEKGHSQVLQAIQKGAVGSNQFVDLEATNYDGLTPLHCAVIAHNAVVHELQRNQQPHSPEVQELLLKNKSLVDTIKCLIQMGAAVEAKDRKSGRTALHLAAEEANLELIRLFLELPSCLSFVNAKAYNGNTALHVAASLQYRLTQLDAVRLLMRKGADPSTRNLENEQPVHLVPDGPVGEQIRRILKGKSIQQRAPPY
Assay: pull-down

B1: recombinant full-length OCT6 with N-terminal 6×His-ECFP tag (natural protein, UniProt Q03052 1-451, looked up)
chain: MATTAQYLPRGPGGGAGGTGPLMHPDAAAAAAAAAAAERLHAGAAYREVQKLMHHEWLGAGAGHPVGLAHPQWLPTGGGGGGDWAGGPHLEHGKAGGGGTGRADDGGGGGGFHARLVHQGAAHAGAAWAQGSTAHHLGPAMSPSPGASGGHQPQPLGLYAQAAYPGGGGGGLAGMLAAGGGGAGPGLHHALHEDGHEAQLEPSPPPHLGAHGHAHGHAHAGGLHAAAAHLHPGAGGGGSSVGEHSDEDAPSSDDLEQFAKQFKQRRIKLGFTQADVGLALGTLYGNVFSQTTICRFEALQLSFKNMCKLKPLLNKWLEETDSSSGSPTNLDKIAAQGRKRKKRTSIEVGVKGALESHFLKCPKPSAHEITGLADSLQLEKEVVRVWFCNRRQKEKRMTPAAGAGHPPMDDVYAPGELGPGGGGASPPSAPPPPPPAALHHHHHHTLPGSVQ
binding result: binds
